The chains are these.
B1: ZNF207 (parent)
chain: FPSAGQAQAAVQGPVGTDFKPLNS
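Also: lentivirally expressed fusions sorted by FACS into six bins by GFP to DsRed ratio, PSI derived from sequencing read proportions per bin multiplied by bin number.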

Variants of B1 are the subject of the data set. Put plainly: protein stability index of a GFP-peptide fusion (GPS, HEK-293T) (PSI 1-6); higher = more stable. Particulars: c terminus: a fixed tail appended.
Take FPSTGQAQAAVQGPVGTDFKPLNS [A4T]: the protein stability index came to 4.39.
On to FPSLGQAQAAVQGPVGTDFKPLNS [A4L], for which the protein stability index turned out to be 4.25.
With FPSHGQAQAAVQGPVGTDFKPLNS [A4H] the figure was 3.71; with FPSNGQAQAAVQGPVGTDFKPLNS [A4N], 4.08.
With FPSEGQAQAAVQGPVGTDFKPLNS [A4E] the figure was 4.58.
As to FPSPGQAQAAVQGPVGTDFKPLNS [A4P], the protein stability index was found to be 4.16.
For FPSYGQAQAAVQGPVGTDFKPLNS [A4Y], the protein stability index stood at 3.51.
With FPSIGQAQAAVQGPVGTDFKPLNS [A4I] the figure was 4.41; with FPSCGQAQAAVQGPVGTDFKPLNS [A4C], 2.52; with FPSVGQAQAAVQGPVGTDFKPLNS [A4V], 3.9.
With FPSDGQAQAAVQGPVGTDFKPLNS [A4D] the figure was 4.68; with FPSSGQAQAAVQGPVGTDFKPLNS [A4S], 3.27; with FPSGGQAQAAVQGPVGTDFKPLNS [A4G], 2.98.
As for FPSQGQAQAAVQGPVGTDFKPLNS [A4Q], the protein stability index was found to be 3.77.
With FPSMGQAQAAVQGPVGTDFKPLNS [A4M] the figure was 3.8; with FPSKGQAQAAVQGPVGTDFKPLNS [A4K], 3.71.
Turning to FPSWGQAQAAVQGPVGTDFKPLNS [A4W], the protein stability index is 2.62.
To FPSRGQAQAAVQGPVGTDFKPLNS [A4R] belongs 3.87.
In the case of FPSFGQAQAAVQGPVGTDFKPLNS [A4F], the protein stability index was 3.82.
As to FPSAGQAQAAVFGPVGTDFKPLNS [Q12F], the protein stability index came to 2.28.
With FPSAGQAQAAVHGPVGTDFKPLNS [Q12H] the figure was 3.18.
Take FPSAGQAQAAVGGPVGTDFKPLNS [Q12G]: the protein stability index stood at 3.37.
To FPSAGQAQAAVLGPVGTDFKPLNS [Q12L] belongs 2.67; to FPSAGQAQAAVMGPVGTDFKPLNS [Q12M], 2.83; to FPSAGQAQAAVEGPVGTDFKPLNS [Q12E], 3.18.
For FPSAGQAQAAVAGPVGTDFKPLNS [Q12A], the protein stability index was determined as 3.13.
To FPSAGQAQAAVCGPVGTDFKPLNS [Q12C] belongs 3.51; to FPSAGQAQAAVKGPVGTDFKPLNS [Q12K], 3.38.
As for FPSAGQAQAAVIGPVGTDFKPLNS [Q12I], the protein stability index is 2.54.
As to FPSAGQAQAAVDGPVGTDFKPLNS [Q12D], the protein stability index came to 3.69.
To FPSAGGAQAAVQGPVGTDFKPLNS [Q6G] belongs 3.65; to FPSAGMAQAAVQGPVGTDFKPLNS [Q6M], 2.8.
Take FPSAGFAQAAVQGPVGTDFKPLNS [Q6F]: the protein stability index came to 2.5.
To FPSAGKAQAAVQGPVGTDFKPLNS [Q6K] belongs 2.76; to FPSAGWAQAAVQGPVGTDFKPLNS [Q6W], 1.47; to FPSAGEAQAAVQGPVGTDFKPLNS [Q6E], 4.16.
As to FPSAGYAQAAVQGPVGTDFKPLNS [Q6Y], the protein stability index was determined as 1.94.
With FPSAGPAQAAVQGPVGTDFKPLNS [Q6P] the figure was 4.23; with FPSAGAAQAAVQGPVGTDFKPLNS [Q6A], 3.72.
On to FPSAGLAQAAVQGPVGTDFKPLNS [Q6L], for which the protein stability index is 2.81.
To FPSAGTAQAAVQGPVGTDFKPLNS [Q6T] belongs 3.96.
In the case of FPSAGIAQAAVQGPVGTDFKPLNS [Q6I], the protein stability index was found to be 2.72.
In the case of FPSAGHAQAAVQGPVGTDFKPLNS [Q6H], the protein stability index was 3.58.
As to FPSAGCAQAAVQGPVGTDFKPLNS [Q6C], the protein stability index worked out at 2.42.
As to FPSAGNAQAAVQGPVGTDFKPLNS [Q6N], the protein stability index came out at 3.62.
To FPSAGVAQAAVQGPVGTDFKPLNS [Q6V] belongs 3.41; to FPSAGDAQAAVQGPVGTDFKPLNS [Q6D], 4.37; to FPSAGRAQAAVQGPVGTDFKPLNS [Q6R], 3.01.
To FPSAGSAQAAVQGPVGTDFKPLNS [Q6S] belongs 3.65.
As for FPSAGQAAAAVQGPVGTDFKPLNS [Q8A], the protein stability index is 4.04.
With FPSAGQATAAVQGPVGTDFKPLNS [Q8T] the figure was 3.47.
For the variant FPSAGQAYAAVQGPVGTDFKPLNS [Q8Y], the protein stability index is 1.71.
On to FPSAGQAKAAVQGPVGTDFKPLNS [Q8K], for which the protein stability index is 3.89.
With FPSAGQAHAAVQGPVGTDFKPLNS [Q8H] the figure was 3.35; with FPSAGQAEAAVQGPVGTDFKPLNS [Q8E], 4.04.
Turning to FPSAGQAMAAVQGPVGTDFKPLNS [Q8M], the protein stability index was 2.72.
To FPSAGQASAAVQGPVGTDFKPLNS [Q8S] belongs 3.68.
Take FPSAGQAVAAVQGPVGTDFKPLNS [Q8V]: the protein stability index was determined as 3.31.
With FPSAGQAIAAVQGPVGTDFKPLNS [Q8I] the figure was 2.76; with FPSAGQAWAAVQGPVGTDFKPLNS [Q8W], 1.89.
For the variant FPSAGQARAAVQGPVGTDFKPLNS [Q8R], the protein stability index was determined as 3.47.
For the variant FPSAGQANAAVQGPVGTDFKPLNS [Q8N], the protein stability index was found to be 3.57.
To FPSAGQACAAVQGPVGTDFKPLNS [Q8C] belongs 3.23.
With FPSAGQAPAAVQGPVGTDFKPLNS [Q8P] the figure was 3.38; with FPSAGQALAAVQGPVGTDFKPLNS [Q8L], 2.11.
With FPSAGQADAAVQGPVGTDFKPLNS [Q8D] the figure was 3.87.
Regarding FPSAGQAFAAVQGPVGTDFKPLNS [Q8F], the protein stability index was 1.48.
With FPSAGQAGAAVQGPVGTDFKPLNS [Q8G] the figure was 3.77.
To FYSAGQAQAAVQGPVGTDFKPLNS [P2Y] belongs 3.47; to FSSAGQAQAAVQGPVGTDFKPLNS [P2S], 3.16; to FTSAGQAQAAVQGPVGTDFKPLNS [P2T], 2.17.
Turning to FWSAGQAQAAVQGPVGTDFKPLNS [P2W], the protein stability index was 3.65.
With FVSAGQAQAAVQGPVGTDFKPLNS [P2V], the protein stability index is 1.97.
For the variant FRSAGQAQAAVQGPVGTDFKPLNS [P2R], the protein stability index came to 4.43.
To FPSAGQTQAAVQGPVGTDFKPLNS [A7T] belongs 3.49; to FPSAGQYQAAVQGPVGTDFKPLNS [A7Y], 1.65; to FPSAGQSQAAVQGPVGTDFKPLNS [A7S], 3.87.
With FPSAGQVQAAVQGPVGTDFKPLNS [A7V] the figure was 3.36; with FPSAGQQQAAVQGPVGTDFKPLNS [A7Q], 3.5.
FPSAGQIQAAVQGPVGTDFKPLNS [A7I]: the protein stability index was 3.15.
With FPSAGQNQAAVQGPVGTDFKPLNS [A7N] the figure was 3.94; with FPSAGQRQAAVQGPVGTDFKPLNS [A7R], 3.26; with FPSAGQHQAAVQGPVGTDFKPLNS [A7H], 3.55.
With FPSAGQPQAAVQGPVGTDFKPLNS [A7P] the figure was 3.51.
To FPSAGQKQAAVQGPVGTDFKPLNS [A7K] belongs 3.49; to FPSAGQCQAAVQGPVGTDFKPLNS [A7C], 2.47.
Consider FPSAGQLQAAVQGPVGTDFKPLNS [A7L], for which the protein stability index was determined as 2.27.
With FPSAGQGQAAVQGPVGTDFKPLNS [A7G] the figure was 3.58; with FPSAGQMQAAVQGPVGTDFKPLNS [A7M], 2.93; with FPSAGQWQAAVQGPVGTDFKPLNS [A7W], 2.44.
As for FPSAGQFQAAVQGPVGTDFKPLNS [A7F], the protein stability index is 2.17.
To FPSAGQEQAAVQGPVGTDFKPLNS [A7E] belongs 3.94; to FPSAGQDQAAVQGPVGTDFKPLNS [A7D], 3.98; to FPSAGQAQAAHQGPVGTDFKPLNS [V11H], 3.74.

Source of the values: the supplement of paper PMC10567573.
